The supplement of paper PMC11246515
± gives the standard deviation of the averaged measurements.

Test: total protein half-life in vivo (active degradation + dilution); higher = more stable protein
[1] = E. coli NCM3722 delta-clpP, growth: N-lim chemostat, doubling time 6 h
[2] = E. coli NCM3722 delta-hslV, growth: N-lim chemostat, doubling time 6 h
[3] = E. coli NCM3722 delta-lon, growth: N-lim chemostat, doubling time 6 h
[4] = E. coli NCM3722 delta-smpB, growth: N-lim chemostat, doubling time 6 h
[5] = wild type E. coli NCM3722, growth: C-lim chemostat, doubling time 3 h
[6] = wild type E. coli NCM3722, growth: C-lim chemostat, doubling time 6 h
[7] = wild type E. coli NCM3722, growth: C-lim chemostat, doubling time 12 h
[8] = wild type E. coli NCM3722, growth: N-lim chemostat, doubling time 6 h
[9] = wild type E. coli NCM3722, growth: N-lim chemostat, doubling time 12 h
[10] = wild type E. coli NCM3722, growth: P-lim chemostat, doubling time 6 h
[11] = wild type E. coli NCM3722, growth: P-lim chemostat, doubling time 12 h
[12] = E. coli NCM3722 delta-clpP delta-lon delta-hslV, growth: N-lim chemostat, doubling time 6 h

Sequence | total protein half-life in vivo [1] [h] | total protein half-life in vivo [2] [h] | total protein half-life in vivo [3] [h] | total protein half-life in vivo [4] [h] | total protein half-life in vivo [5] [h] | total protein half-life in vivo [6] [h] | total protein half-life in vivo [7] [h] | total protein half-life in vivo [8] [h] | total protein half-life in vivo [9] [h] | total protein half-life in vivo [10] [h] | total protein half-life in vivo [11] [h] | total protein half-life in vivo [12] [h]
MIEADRLISAGTTLPEDVADRAIRPKLLEEYVGQPQVRSQMEIFIKAAKLRGDALDHLLIFGPPGLGKTTLANIVANEMGVNLRTTSGPVLEKAGDLAAMLTNLEPHDVLFIDEIHRLSPVVEEVLYPAMEDYQLDIMIGEGPAARSIKIDLPPFTLIGATTRAGSLTSPLRDRFGIVQRLEFYQVPDLQYIVSRSARFMGLEMSDDGALEVARRARGTPRIANRLLRRVRDFAEVKHDGTISADIAAQALDMLNVDAEGFDYMDRKLLLAVIDKFFGGPVGLDNLAAAIGEERETIEDVLEPYLIQQGFLQRTPRGRMATTRAWNHFGITPPEMP [P0A812] | 3.14 ± 0.2 | 1.8 ± 0.077 | 2.7 ± 0.38 | 1.63 ± 0.079 | 2.35 ± 0.51 | 3.53 ± 0.55 | 5.83 ± 0.95 | 2.08 ± 0.048 | 2.46 ± 0.039 | 3.14 ± 0.27 | 4.66 ± 0.42 | –
MKKLAIAGALLLLAGCAEVENYNNVVKTPAPDWLAGYWQTKGPQRALVSPEAIGSLIVTKEGDTLDCRQWQRVIAVPGKLTLMSDDLTNVTVKRELYEVERDGNTIEYDGMTMERVDRPTAECAAALDKAPLPTPLP | 6.08 ± 0.62 | 6.36 ± 0.14 | 7.26 ± 0.97 | 6.12 ± 0.1 | 3 ± 0.23 | 6.16 ± 0.61 | – | 4.4 ± 3.5 | 12.5 ± 0.86 | 6.19 ± 0.15 | 12.4 ± 0.42 | 7.04 ± 1.3
MKKIAITCALLSSLVASSVWADAASDLKSRLDKVSSFHASFTQKVTDGSGAAVQEGQGDLWVKRPNLFNWHMTQPDESILVSDGKTLWFYNPFVEQATATWLKDATGNTPFMLIARNQSSDWQQYNIKQNGDDFVLTPKASNGNLKQFTINVGRDGTIHQFSAVEQDDQRSSYQLKSQQNGAVDAAKFTFTPPQGVTVDDQRK | 5.76 ± 1 | 7.06 ± 1.3 | – | – | 3.364 ± 0.025 | 5.679 ± 0.056 | 9.08 ± 0.39 | 6.25 ± 0.41 | 12.5 ± 0.7 | 5.978 ± 0.007 | 12.124 ± 0.011 | 4.62 ± 0.5
MMEQSLIPQTPVLPLTAQRTVKRALTLLDRHLRETGVAFTSTQAARDWLKLKMAGLEREEFMMLYLNQQNQLIAHETLFAGSISSTEVHPREVVKRALYFNAAAVILAHNHPSGDTTPSQADKTITQRLVQALQLVDIRVPDHLIVGGRQIYSFAEHGLL | – | – | – | – | – | – | – | – | 8.33 | – | 10.4 | –
MSKRTFAVILTLLCSFCIGQALAGGIVLQRTRVIYDASRKEAALPVANKGAETPYLLQSWVDNIDGKSRAPFIITPPLFRLEAGDDSSLRIIKTADNLPENKESLFYINVRAIPAKKKSDDVNANELTLVFKTRIKMFYRPAHLKGRVNDAWKSLEFKRSDHSLNIYNPTEYYVVFAGLAVDKTDLTSKIEYIAPGEHKQLPLPASGGKNVKWAAINDYGGSSGTETRPLQ | – | 6.17 | – | – | – | – | – | – | – | – | – | –
MATYYSNDFRAGLKIMLDGEPYAVEASEFVKPGKGQAFARVKLRRLLTGTRVEKTFKSTDSAEGADVVDMNLTYLYNDGEFWHFMNNETFEQLSADAKAIGDNAKWLLDQAECIVTLWNGQPISVTPPNFVELEIVDTDPGLKGDTAGTGGKPATLSTGAVVKVPLFVQIGEVIKVDTRSGEYVSRVK [P0A6N4] | 4.46 ± 0.85 | 4.41 ± 0.21 | 5.35 ± 0.54 | 4.285 ± 0.022 | 2.91 ± 0.13 | 4.775 ± 0.023 | 8.29 ± 0.57 | 4.24 ± 0.074 | 5.76 ± 0.19 | 4.32 ± 0.1 | 8.07 ± 0.47 | –
MQTEHVILLNAQGVPTGTLEKYAAHTADTRLHLAFSSWLFNAKGQLLVTRRALSKKAWPGVWTNSVCGHPQLGESNEDAVIRRCRYELGVEITPPESIYPDFRYRATDPSGIVENEVCPVFAARTTSALQINDDEVMDYQWCDLADVLHGIDATPWAFSPWMVMQATNREARKRLSAFTQLK | 4.86 ± 0.81 | 4.79 ± 0.39 | 4.68 ± 0.56 | 4.42 ± 0.16 | 3.09 ± 0.08 | 6.016 ± 0.044 | 8.96 ± 0.18 | 4.39 | 7.89 | 5.61 | 13.1 ± 1.7 | 4.63 ± 0.67
MKNKADNKKRNFLTHSEIESLLKAANTGPHAARNYCLTLLCFIHGFRASEICRLRISDIDLKAKCIYIHRLKKGFSTTHPLLNKEVQALKNWLSIRTSYPHAESEWVFLSRKGNPLSRQQFYHIISTSGGNAGLSLEIHPHMLRHSCGFALANMGIDTRLIQDYLGHRNIRHTVWYTASNAGRFYGIWDRARGRQRHAVL [P0ADH5] | – | – | 1.9 | 0.718 ± 0.15 | – | – | – | – | 0.988 | – | – | 5.33 ± 0.87
MKHTVEVMIPEAEIKARIAELGRQITERYKDSGSDMVLVGLLRGSFMFMADLCREVQVSHEVDFMTASSYGSGMSTTRDVKILKDLDEDIRGKDVLIVEDIIDSGNTLSKVREILSLREPKSLAICTLLDKPSRREVNVPVEFIGFSIPDEFVVGYGIDYAQRYRHLPYIGKVILLDE [P0A9M2] | 4.53 ± 0.57 | 4.14 ± 0.16 | 5.16 ± 0.72 | 4.08 ± 0.22 | 2.88 ± 0.16 | 4.78 ± 1.6 | 9.38 ± 0.47 | 4.126 ± 0.012 | 7.29 ± 0.7 | 5.5 ± 0.17 | 12.9 ± 1.8 | 4.48 ± 0.22
MSEKTFLVEIGTEELPPKALRSLAESFAANFTAELDNAGLAHGTVQWFAAPRRLALKVANLAEAQPDREIEKRGPAIAQAFDAEGKPSKAAEGWARGCGITVDQAERLTTDKGEWLLYRAHVKGESTEALLPNMVATSLAKLPIPKLMRWGASDVHFVRPVHTVTLLLGDKVIPATILGIQSDRVIRGHRFMGEPEFTIDNADQYPEILRERGKVIADYEERKAKIKADAEEAARKIGGNADLSESLLEEVASLVEWPVVLTAKFEEKFLAVPAEALVYTMKGDQKYFPVYANDGKLLPNFIFVANIESKDPQQIISGNEKVVRPRLADAEFFFNTDRKKRLEDNLPRLQTVLFQQQLGTLRDKTDRIQALAGWIAEQIGADVNHATRAGLLSKCDLMTNMVFEFTDTQGVMGMHYARHDGEAEDVAVALNEQYQPRFAGDDLPSNPVACALAIADKMDTLAGIFGIGQHPKGDKDPFALRRAALGVLRIIVEKNLNLDLQTLTEEAVRLYGDKLTNANVVDDVIDFMLGRFRAWYQDEGYTVDTIQAVLARRPTRPADFDARMKAVSHFRTLDAAAALAAANKRVSNILAKSDEVLSDRVNASTLKEPEEIKLAMQVVVLRDKLEPYFTEGRYQDALVELAELREPVDAFFDKVMVMVDDKELRINRLTMLEKLRELFLRVADISLLQ | 6.28 ± 0.94 | 5.56 ± 0.53 | 5.82 ± 0.65 | 5.74 ± 0.6 | 3.278 ± 0.0052 | 5.89 ± 0.085 | 11 ± 1 | 5.72 ± 0.31 | 10.5 ± 0.11 | 6.31 ± 0.44 | 12.2 ± 1.2 | 6.02 ± 0.36
MKRAVITGLGIVSSIGNNQQEVLASLREGRSGITFSQELKDSGMRSHVWGNVKLDTTGLIDRKVVRFMSDASIYAFLSMEQAIADAGLSPEAYQNNPRVGLIAGSGGGSPRFQVFGADAMRGPRGLKAVGPYVVTKAMASGVSACLATPFKIHGVNYSISSACATSAHCIGNAVEQIQLGKQDIVFAGGGEELCWEMACEFDAMGALSTKYNDTPEKASRTYDAHRDGFVIAGGGGMVVVEELEHALARGAHIYAEIVGYGATSDGADMVAPSGEGAVRCMKMAMHGVDTPIDYLNSHGTSTPVGDVKELAAIREVFGDKSPAISATKAMTGHSLGAAGVQEAIYSLLMLEHGFIAPSINIEELDEQAAGLNIVTETTDRELTTVMSNSFGFGGTNATLVMRKLKD [P0A953] | 5.06 ± 0.069 | 4.81 ± 0.16 | 4.98 ± 0.26 | 4.81 ± 0.049 | 2.99 ± 0.039 | 6.06 ± 0.36 | 10.8 ± 0.81 | 4.78 ± 0.11 | 8.39 ± 0.45 | 5.89 ± 0.25 | 12.3 ± 0.21 | 5.27 ± 0.45
